For data set [1], the target named is SUR2A nucleotide binding domain 2 (NBD2, G1301-K1546) (murine). The experiment in a line: SAXS.
The data set “SAXS” deals with the molecule itself. Briefly: SAXS.

We go through 2 molecules from article PMC2818519 (Journal of structural biology, 2009).

As a reminder, the stoichiometry N is the number of molecules, sites or subunits per partner or assembly.

For the molecule “SUR2A nucleotide binding domain 2 (NBD2, G1301-K1546) (domain or fragment)”, in data set [1], the stoichiometry N stood at 8.

B1: SUR2A nucleotide binding domain 1 (NBD1, D666-890) (domain or fragment, murine, UniProt P70170-1 666-890, looked up)
chain: DIAIKVTNGYFSWGSGLATLSNIDIRIPTGQLTMIVGQVGCGKSSLLLAILGEMQTLEGKVYWNNVNESEPSFEATRSRSRYSVAYAAQKPWLLNATVEENITFGSPFNRQRYKAVTDACSLQPDIDLLPFGDQTEIGERGINLSGGQRQRICVARALYQNTNIVFLDDPFSALDIHLSDHLMQEGILKFLQDDKRTVVLVTHKLQYLTHADWIIAMKDGSVLRE
For the molecule B1, the “stoichiometry N” value in “SAXS” was determined as 8.
